# T1: prolactin receptor (PRLR) on T-47D human breast cancer cells (human, UniProt P16471 25-622)
# T1 construct: whole, on cells; Endogenous receptor on T-47D cells; also called hPRLR; PRL receptor
# T1 sequence (looked up): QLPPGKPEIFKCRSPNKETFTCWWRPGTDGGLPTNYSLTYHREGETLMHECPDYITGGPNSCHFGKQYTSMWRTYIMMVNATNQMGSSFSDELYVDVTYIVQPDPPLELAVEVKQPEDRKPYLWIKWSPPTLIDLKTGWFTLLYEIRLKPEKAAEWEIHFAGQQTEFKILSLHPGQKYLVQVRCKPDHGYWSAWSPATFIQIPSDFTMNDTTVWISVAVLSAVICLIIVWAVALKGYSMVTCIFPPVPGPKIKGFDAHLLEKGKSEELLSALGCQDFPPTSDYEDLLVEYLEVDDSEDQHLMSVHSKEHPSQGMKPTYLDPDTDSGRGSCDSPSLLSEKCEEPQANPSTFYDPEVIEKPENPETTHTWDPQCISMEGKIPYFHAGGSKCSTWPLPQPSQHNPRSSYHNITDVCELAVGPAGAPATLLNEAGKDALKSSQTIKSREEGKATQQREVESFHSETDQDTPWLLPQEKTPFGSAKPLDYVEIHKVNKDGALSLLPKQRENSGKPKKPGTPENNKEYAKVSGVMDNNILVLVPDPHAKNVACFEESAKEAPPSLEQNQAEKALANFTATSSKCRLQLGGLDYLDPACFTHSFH
# B1: hPRL-G129R (ligand)
# chain: MLPICPGGAARCQVTLRDLFDRAVVLSHYIHNLSSEMFSEFDKRYTHGRGFITKAINSCHTSSLATPEDKEQAQQMNQKDFLSLIVSILRSWNEPLYHLVTEVRGMQEAPEAILSKAVEIEEQTKRLLERMELIVSQVHPETKENEIYPVWSGLPSLQMADEESRLSAYYNLLHCLRRDSHKIDNYLKLLKCRIIHNNNC
# notes: also called hPRLA; prolactin antagonist
# B2: human prolactin (hPRL) (ligand, UniProt P01236 29-227, looked up)
# chain: LPICPGGAARCQVTLRDLFDRAVVLSHYIHNLSSEMFSEFDKRYTHGRGFITKAINSCHTSSLATPEDKEQAQQMNQKDFLSLIVSILRSWNEPLYHLVTEVRGMQEAPEAILSKAVEIEEQTKRLLEGMELIVSQVHPETKENEIYPVWSGLPSLQMADEESRLSAYYNLLHCLRRDSHKIDNYLKLLKCRIIHNNNC
# B3: G129R-endostatin fusion protein (GEFP) (other)
# chain: MLPICPGGAARCQVTLRDLFDRAVVLSHYIHNLSSEMFSEFDKRYTHGRGFITKAINSCHTSSLATPEDKEQAQQMNQKDFLSLIVSILRSWNEPLYHLVTEVRGMQEAPEAILSKAVEIEEQTKRLLERMELIVSQVHPETKENEIYPVWSGLPSLQMADEESRLSAYYNLLHCLRRDSHKIDNYLKLLKCRIIHNNNCGSHSHRDFQPVLHLVALNSPLSGGMRGIRGADFQCFQQARAVGLAGTFRAFLSSRLQDLYSIVRRADRAAVPIVNLKDELLFPSWEALFSGSEGPLKPGARIFSFDGKDVLRHPTWPQKSVWHGSDPNGRRLTESYCETWRTEAPSATGQASSLLGGRLLGQSAASCHHAYIVLCIENSFMTASK
# notes: The C-terminus of G129R is fused to the N-terminus of endostatin; E. coli product with an extra Met at the N-terminus; also called hPRL-G129R-Endo fusion protein
# Target: T1, prolactin receptor (PRLR) on T-47D …
# Assay: competitive radioreceptor binding assay on T-47D cells, 125I-hPRL tracer
# Experimental: Radioreceptor binding assays were performed as previously described (Chen et al., 1991; Appendix B). Briefly, T-47D cells will be grown in six-well tissue culture plates until 90% confluent (˜10⁵ cells/well). Monolayers of cells were starved in serum-free RPMI-1640 medium for 2h. The cells were then incubated at room temperature for two hours in serum-free RPMI-1640 containing 8×10⁴ cpm ¹²⁵I hPRL (Specific Activity=30 μCi/μg; NEN Dupont, Boston, Mass.) with or without hPRL, hPRL-G129R, endostatin, or GEFP at various concentrations. Cells were then washed three times in serum-free RPMI-1640 and solubilized in 0.5 ml of 0.1N NaOH/1% SDS, and the bound radioactivity was determined by a Gamma counter (ICN Biomedical, model 4/600plus; Costa Mesa, Calif.).
row,binding result,Binder
1,binds,B1
2,binds,B2
3,binds,B3
